{"source": "patent US20250243261A1", "about": "(CZ BIOHUB SF, published 2025)", "target": "T1, full-length Ebola GP on pseudotyped lentivirus (Zaire ebolavirus, UniProt Q05320 33-676)", "T1 sequence": "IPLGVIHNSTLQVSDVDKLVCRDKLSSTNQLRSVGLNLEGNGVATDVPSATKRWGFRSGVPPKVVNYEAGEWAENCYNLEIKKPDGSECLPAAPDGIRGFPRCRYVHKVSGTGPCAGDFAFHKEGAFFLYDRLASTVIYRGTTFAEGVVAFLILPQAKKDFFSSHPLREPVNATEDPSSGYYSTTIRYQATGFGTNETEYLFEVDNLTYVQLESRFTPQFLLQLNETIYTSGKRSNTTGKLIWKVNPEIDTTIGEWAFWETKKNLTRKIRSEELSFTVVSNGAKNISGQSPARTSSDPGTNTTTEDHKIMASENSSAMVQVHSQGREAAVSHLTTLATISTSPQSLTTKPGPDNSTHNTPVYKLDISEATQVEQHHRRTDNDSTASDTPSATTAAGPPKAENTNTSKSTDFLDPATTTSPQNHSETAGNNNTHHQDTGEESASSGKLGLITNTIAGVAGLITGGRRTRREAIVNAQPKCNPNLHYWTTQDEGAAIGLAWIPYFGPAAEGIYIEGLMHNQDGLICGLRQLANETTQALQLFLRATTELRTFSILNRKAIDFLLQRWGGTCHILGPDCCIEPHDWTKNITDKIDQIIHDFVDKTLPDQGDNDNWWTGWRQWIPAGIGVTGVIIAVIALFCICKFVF", "experiment": "cell-based or functional assay"}
{"binder": "mAb114 WT IgG (antibody, V domains shown) VH: EVQLVESGGGLIQPGGSLRLSCAASGFALRMYDMHWVRQTIDKRLEWVSAVGPSGDTYYADSVKGRFAVSRENAKNSLSLQMNSLTAGDTAIYYCVRSDRGVAGLFDSWGQGILVTVSS VL: DIQMTQSPSSLSASVGDRITITCRASQAFDNYVAWYQQRPGKVPKLLISAASALHAGVPSRFSGSGSGTHFTLTISSLQPEDVATYYCQNYNSAPLTFGGGTKVEIK", "values": [{"measurement": "Ebola GP pseudotyped lentivirus IC50", "value": 1.43, "unit": "nM"}]}
